Source: patent publication US20230272099A1 (Chugai, published 2023)
Changes are numbered by the printed parent chain.

B1: dBBAT053-P253 (antibody, human IgG1, lambda, V domains shown)
VH: EVQLVESGGDLVKPGGGLRLSCAASGFTFSTFTMNWVRQAPGKGLEWVSSISSRSNYIYYADSVKGRFTISRDNAKNSLYLQMNSLRAEDTAVYYCARFGLKNEMNWVFDYWGQGTLVTVSS
VL: QSALTQPPSASGSPGQTVTISCTGTSSDVGFYNYVSWYQQHPGKAPKLMIYEGSKKPSGVPDRFSGSKSGNTASLTVSGLQAEDEADYFCSVYSYIYYVLFGGGTKLTVLG
B2: A375-SCF057a/B167-Lamlib (antibody, human IgG1, lambda)
heavy: EVQLVESGGGLVKPGGSLRLSCAASGFTFSTFTMNWVRQAPGKGLEWVSSISSKSTYIEYADSFKVRFTISRDNAKNSLYLQMNSLRAEDTAVYYCARYGAKNFLNWVFDYWGQGTLVTVSSASTKGPSVFPLAPSSKSTSGGTAALGCLVKDYFPEPVTVSWNSGALTSGVHTFPAVLQSSGLYSLSSVVTVPSSSLGTQTYICNVNHKPSNTKVDKRVEPKSCDKTHTCPPCPAPELLNGPSVFLFPPKPKDTLMISRTPEVTCVVVDVSDEDPEVKFNWYVDGVEVHNAKTKPREEQYNSTYRVVSVLTVLHRDWLNGKEYKCKVSNKALPKPIEKTISKAKGQRREPQVYTLPPSREEMTKNQVSLTCLVKGFYPSDIAVEWESNGQPENNYKTTPPVLDSDGSFFLYSKLTVDKSRWQQGNVFSCSVMHEALHNHYTQKSLSLSP
light: QSALTQPPSASGSPGQTVTISCTGTRYDVGYYEYVSWYQQHPGKAPKLMIYETSKRLSGVPDRFSGSKSGNTASLTVSGLQAEDEADYYCSSYRYEHQVSFGGGTKLTVLGQPKAAPSVTLFPPSSEELQANKATLVCLISDFYPGAVTVAWKADSSPVKAGVETTTPSKQSNNKYAASSYLSLTPEQWKSHRSYSCQVTHEGSTVEKTVAPTECS
B3: A375-SCF057aPh/B167-Lamlib (antibody, human IgG1, lambda)
heavy: B2 heavy with L240W
light: B2 light
B4: A375-TT16/B167-Lamlib (antibody, human IgG1, lambda)
heavy: B2 heavy with R219K, L239Y, N241G, G242D, P243D, T255V, D273H, T312P, R316Q, R348P
light: B2 light
notes: copies: 2 + 2
B5: A375-TT14/B167-Lamlib (antibody, human IgG1, lambda)
heavy: B2 heavy with R219K, L239Y, N241G, P243D, T255V, V269I, D273H, T312P, R316Q, R348P
light: B2 light
notes: copies: 2 + 2
B6: A375-SCF060a/B167-Lamlib (antibody, human IgG1, lambda)
heavy: B2 heavy with L240W, Q300L, K331T, R348P
light: B2 light
notes: copies: 2 + 2
B7: A375-SCF059aPh/B167-Lamlib (antibody, human IgG1, lambda)
heavy: B2 heavy with L240W, R348P, D418K
light: B2 light
notes: copies: 2 + 2
B8: A375-SCF059a/B167-Lamlib (antibody, human IgG1, lambda)
heavy: B2 heavy with R348P, D418K
light: B2 light
notes: copies: 2 + 2

target: T1, biotinylated Fc-fused monkey CD137 (monkey, biotin on the AviTag); experiment: ELISA, 1 mM ADP, 0.010 ug/mL; set-up: reference not given here
T1 construct: also called cyCD137-Fc-BAP
T1 sequence (chain, as listed by the source limits assumed): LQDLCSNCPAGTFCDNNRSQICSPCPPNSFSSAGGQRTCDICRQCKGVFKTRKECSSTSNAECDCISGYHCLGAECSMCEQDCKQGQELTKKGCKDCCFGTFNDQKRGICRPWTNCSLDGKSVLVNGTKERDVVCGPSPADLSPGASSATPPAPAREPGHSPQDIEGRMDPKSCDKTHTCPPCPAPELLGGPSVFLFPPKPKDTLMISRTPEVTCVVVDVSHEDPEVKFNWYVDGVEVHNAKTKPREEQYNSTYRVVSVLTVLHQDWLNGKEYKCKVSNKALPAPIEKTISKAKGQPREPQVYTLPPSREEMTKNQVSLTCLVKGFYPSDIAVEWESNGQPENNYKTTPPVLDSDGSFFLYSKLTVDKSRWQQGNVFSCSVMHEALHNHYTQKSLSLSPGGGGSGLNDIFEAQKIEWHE
Procedure: (§1) The obtained antibodies were evaluated for binding to monkey CD137 by ELISA. The cyCD137-Fc-BAP prepared in Reference Example 1 was immobilized on Streptawell microtiter plates. After the unbound antigen was removed from the plates by washing each well of the plates with the wash buffer, the wells were blocked with 150 μL of a blocking buffer (TBS with 2% BSA) for 1 hour or more. The blocking buffer was removed from each well, and 100 μL of the purified antibodies diluted in TBS with a final concentration of 1 mM ADP, or TBS with a final concentration 1 mM ADP was added to each well. The plate to which the antibody was added was shaken at 600 rpm for 1 hour. The AP-conjugated anti-human lambda antibodies (BETHYL) diluted in TBS with a final concentration of 1 mM ADP were added to each well after washing with a wash buffer (TBS with 0.1% Tween20) containing a final concentration of 1 mM ADP. After incubation for one hour and washing with a wash buffer containing a final concentration of 1 mM […], BluePhos phosphate substrate (KPL) was added. Color development was measured by absorbance at 600 nm. Samples with a concentration-dependent increase in the absorbance ratio can be said to be bound to monkey CD137.

Row | Binder | absorbance ratio
1 | B1 | 0.8

target: T1, biotinylated Fc-fused monkey CD137; experiment: ELISA, 1 mM ADP, 2.5 ug/mL; set-up: reference not given here
Procedure: as §1

Row | Binder | absorbance ratio
2 | B1 | 6.9

target: human FcRn (human, UniProt P55899 24-290; P61769 21-119); experiment: SPR 25C pH 6.0, steady state
Sequence (P55899 24-290 limits assumed, chain 1 of 2): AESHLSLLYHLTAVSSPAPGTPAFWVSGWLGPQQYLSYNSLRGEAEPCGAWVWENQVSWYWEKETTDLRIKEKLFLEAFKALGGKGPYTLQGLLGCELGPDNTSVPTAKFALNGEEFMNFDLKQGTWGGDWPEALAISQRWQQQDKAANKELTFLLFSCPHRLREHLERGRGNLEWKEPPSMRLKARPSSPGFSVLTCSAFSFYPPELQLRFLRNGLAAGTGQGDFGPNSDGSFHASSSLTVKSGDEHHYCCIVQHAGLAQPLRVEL
Sequence (P61769 21-119 limits assumed, chain 2 of 2): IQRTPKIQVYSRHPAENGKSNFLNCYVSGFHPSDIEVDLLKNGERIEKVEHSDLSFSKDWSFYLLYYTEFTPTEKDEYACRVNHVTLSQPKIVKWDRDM
How it was run: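 Antibody (~400 RU) captured on anti-Fab-lambda sensor chip, human FcRn injected as analyte.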

Row | Binder | Kd [nM]
3 | B2 | 928
4 | B3 | 909
5 | B4 | 1510
6 | B5 | 1770
7 | B6 | 1010
8 | B7 | 1050
9 | B8 | 1030

target: T1, biotinylated Fc-fused monkey CD137; experiment: ELISA, 1 mM ADP, 0.625 ug/mL; set-up: reference not given here
Procedure: as §1

Row | Binder | absorbance ratio
10 | B1 | 2.3

target: T1, biotinylated Fc-fused monkey CD137; experiment: ELISA, 1 mM ADP, 0.156 ug/mL; set-up: reference not given here
Procedure: as §1

Row | Binder | absorbance ratio
11 | B1 | 1

target: T1, biotinylated Fc-fused monkey CD137; experiment: ELISA, 1 mM ADP, 10 ug/mL; set-up: reference not given here
Procedure: as §1

Row | Binder | absorbance ratio
12 | B1 | 17.9

target: T2, human FcgRIIIa V158 extracellular domain (human, UniProt P08637 17-208); experiment: SPR 25C
T2 construct: extracellular domain; also called hFcgRIIIaV
T2 sequence (P08637 17-208 F176V): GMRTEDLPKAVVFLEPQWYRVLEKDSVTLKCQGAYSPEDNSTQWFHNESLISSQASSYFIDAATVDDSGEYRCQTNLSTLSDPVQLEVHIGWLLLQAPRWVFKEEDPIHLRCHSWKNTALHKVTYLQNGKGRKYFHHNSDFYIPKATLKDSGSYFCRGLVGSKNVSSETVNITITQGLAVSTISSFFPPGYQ

Row | Binder | binding per 1RU antibody [RU] | relative binding (A375-G1T3/B167-Lamlib=1)
13 | B2 | 0.0025 | 0.04
14 | B3 | 0.0005 | 0.01
15 | B4 | -0.0002 | 0
16 | B5 | 0.0003 | 0
17 | B6 | 0.0008 | 0.01
18 | B7 | 0.0028 | 0.04
19 | B8 | 0.0021 | 0.03

target: T3, human FcgRIIa type R extracellular domain (human, UniProt P12318 34-217); experiment: SPR 25C
T3 construct: extracellular domain; also called hFcgRIIaR
T3 sequence (looked up): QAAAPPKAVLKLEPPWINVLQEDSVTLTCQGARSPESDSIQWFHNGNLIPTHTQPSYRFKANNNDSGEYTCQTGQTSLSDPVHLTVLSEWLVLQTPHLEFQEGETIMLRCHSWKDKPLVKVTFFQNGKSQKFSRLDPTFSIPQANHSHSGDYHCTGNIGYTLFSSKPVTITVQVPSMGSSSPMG

Row | Binder | binding per 1RU antibody [RU] | relative binding (A375-G1T3/B167-Lamlib=1)
20 | B2 | 0.0367 | 0.79
21 | B3 | 0.0364 | 0.79
22 | B4 | 0.0359 | 0.77
23 | B5 | 0.0067 | 0.14
24 | B6 | 0.0459 | 0.99
25 | B7 | 0.0319 | 0.69
26 | B8 | 0.0319 | 0.69

target: T4, human FcgRIIb extracellular domain (human, UniProt P31994 43-217); experiment: SPR 25C
T4 construct: extracellular domain; also called hFcgRIIb
T4 sequence (looked up): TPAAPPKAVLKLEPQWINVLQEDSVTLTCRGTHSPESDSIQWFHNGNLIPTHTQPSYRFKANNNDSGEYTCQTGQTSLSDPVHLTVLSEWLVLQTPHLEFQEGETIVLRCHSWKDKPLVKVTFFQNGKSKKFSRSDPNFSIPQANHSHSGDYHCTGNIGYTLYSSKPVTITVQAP

Row | Binder | binding per 1RU antibody [RU] | relative binding (A375-G1T3/B167-Lamlib=1)
27 | B2 | 0.0412 | 3.76
28 | B3 | 0.0345 | 3.15
29 | B4 | 0.109 | 9.94
30 | B5 | 0.0805 | 7.34
31 | B6 | 0.0472 | 4.31
32 | B7 | 0.0291 | 2.66
33 | B8 | 0.0358 | 3.27

target: T5, human FcgRIIIa F158 extracellular domain (human, UniProt P08637 17-208); experiment: SPR 25C
T5 construct: extracellular domain; also called hFcgRIIIaF
T5 sequence (P08637 17-208): as the sequence (P08637 17-208 F176V) above, with V160F counted along it

Row | Binder | binding per 1RU antibody [RU] | relative binding (A375-G1T3/B167-Lamlib=1)
34 | B2 | 0.0013 | 0.06
35 | B3 | -0.0003 | -0.02
36 | B4 | 0.0001 | 0
37 | B5 | 0 | 0
38 | B6 | 0.0011 | 0.05
39 | B7 | 0.0003 | 0.01
40 | B8 | 0.001 | 0.05

target: T6, human FcgRIa extracellular domain (human, UniProt P12314 16-292); experiment: SPR 25C
T6 construct: extracellular domain; also called hFcgRIa
T6 sequence (P12314 16-292): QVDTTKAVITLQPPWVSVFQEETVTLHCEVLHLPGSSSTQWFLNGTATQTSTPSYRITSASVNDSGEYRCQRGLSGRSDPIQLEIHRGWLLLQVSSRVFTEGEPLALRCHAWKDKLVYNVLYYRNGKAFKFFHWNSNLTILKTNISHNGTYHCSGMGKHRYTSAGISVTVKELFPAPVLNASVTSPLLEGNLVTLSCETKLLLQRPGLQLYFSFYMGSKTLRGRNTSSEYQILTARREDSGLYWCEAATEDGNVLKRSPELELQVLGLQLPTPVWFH

Row | Binder | binding per 1RU antibody [RU] | relative binding (A375-G1T3/B167-Lamlib=1)
41 | B2 | 0.0405 | 0.5
42 | B3 | 0.0021 | 0.03
43 | B4 | 0.0034 | 0.04
44 | B5 | 0.0045 | 0.05
45 | B6 | 0.0021 | 0.03
46 | B7 | 0.0089 | 0.11
47 | B8 | 0.038 | 0.47

target: T7, human FcgRIIa type H extracellular domain (human, UniProt P12318 34-217); experiment: SPR 25C
T7 construct: extracellular domain; also called hFcgRIIaH
T7 sequence (looked up): T3 sequence (looked up) with R134H

Row | Binder | binding per 1RU antibody [RU] | relative binding (A375-G1T3/B167-Lamlib=1)
48 | B2 | 0.0525 | 0.93
49 | B3 | 0.0365 | 0.64
50 | B4 | 0.0126 | 0.22
51 | B5 | 0.0042 | 0.07
52 | B6 | 0.0463 | 0.82
53 | B7 | 0.0332 | 0.59
54 | B8 | 0.0502 | 0.88

target: T1, biotinylated Fc-fused monkey CD137; experiment: ELISA, 1 mM ADP, 0.039 ug/mL; set-up: reference not given here
Procedure: as §1

Row | Binder | absorbance ratio
55 | B1 | 0.7
